How the values were obtained:
[1] = target: T1, rmIGF-1R protein (R&D Systems, cat No 6630-GR/Fc) (murine, UniProt Q60751 31-936); assay: ELISA, coated rmIGF-1R (Table 8)
T1 construct: extracellular domain; bought; also called murine extracellular domain (ECD) of IGF-1R; not shown: Fc only implied by the catalogue number; not described
Experimental: (§1) In addition three ELISA were performed (either before or after cloning) to study the binding of antibodies on the recombinant human (hIGF-1R) and murine (mIGF-1R) proteins, and on the recombinant human Insulin Receptor (hIR) protein. […] The plates were then blocked with PBS containing 0.5% gelatin (#22151, Serva Electrophoresis GmbH, Heidelberg, Germany) for 2 h at 37° C. Once the saturation buffer discarded by flicking plates, 100 μl of each supernatant dilution were added to the wells (either undiluted hybridoma supernatant either supernatant serial dilutions) and incubated for 1 h at 37° C. […] Then, ELISA plates were washed 3-times and the TMB (#UP664782, Uptima, Interchim, France) substrate is added. After a 10 min incubation time at room temperature, the reaction was stopped using 1 M sulfuric acid and the optical density at 450 nm is measured.

[2] = target: T2, human IGF-1R (native, on cells) (human, UniProt P08069 31-1367); assay: FACS, Tf hIGF1R+ cells, Ab 5 ug/ml
T2 construct: also called hIGF-1R; native IGF-1R on MCF-7 cells

[3] = target: T2, human IGF-1R (native, on cells); assay: cell-based or functional assay
[4] = target: T2, human IGF-1R (native, on cells); assay: cell-based or functional assay; remark: listed apart in the source
[5] = target: T3, rhIR protein (R&D Systems, cat No 1544-IR/CF) (human, UniProt P06213-2 28-944); assay: ELISA, coated rhIR 1 ug/ml
T3 construct: extracellular domain; bought; also called rh Insulin R; recombinant human Insulin Receptor
Experimental: as §1

[6] = target: T1, rmIGF-1R protein (R&D Systems, cat No …); assay: ELISA, coated rm IGF-1R, SNT 5 ug/ml
Experimental: as §1

[7] = target: T4, monkey IGF-1R (on COS-7 cells) (African green monkey); assay: cell-based or functional assay
[8] = target: T4, monkey IGF-1R (on COS-7 cells); assay: FACS, Cos-7 (monkey IGF1R+), Ab 5 ug/ml
[9] = target: T5, human insulin receptor (on cells) (human, UniProt P06213 28-1382); assay: FACS on hIR+ transfected cells, 4°C
T5 construct: whole, on cells; on stably transfected cells or on IM9 cells; also called hIR; IR
Experimental: (§2) In order to verify the absence of binding of both murine and chimeric antibodies on hIR, a stable cell line expressing the human IR was used. The recognition of human cell surface hIR by both murine and chimeric Ab was performed by FACS analyses. Increasing concentrations of either the murine or the chimeric mAbs were incubated on the hIR′ transfected cell line for 20 minutes at 4° C. in FACS buffer (PBS, 0.1% BSA, 0.01% NaN₃). Cells were then washed 3 times and incubated with the appropriate secondary antibody coupled with Alexa 488 before being incubated for 20 additional minutes at 4° C. in the dark and then washed 3 times in FACS buffer. The binding of anti-IGF-1R antibodies was immediately performed on viable cells which were identified using propidium iodide (that stains dead cells). The binding EC₅₀ expressed in molarity (M) was calculated using a nonlinear regression analysis (GraphPad Prims 4.0). […] The c9G4 was introduced as an irrelevant antibody (isotype control).

[10] = target: T2, human IGF-1R (native, on cells); assay: FACS, MCF7, 4°C, Ab 5 ug/ml
Experimental: Additionally an internalization assay was performed in order to select only internalizing antibodies. For this assay, the MCF7 tumor cell line was cultured in RMPI 1640 without phenol red with 1% L-glutamine and 10% of […] for 3 days before experiment. Cells were then detached using trypsin and 100 μl of a cell suspension at 4·10⁵ cell/ml are plated in 96-multiwell plates in RPMI1640 without phenol red with 1% L-glutamine and 5% FBS. After a 2 min centrifugation at 2000 rpm, cells were resupended in 50 μl of hybridoma supernatant or control antibody solutions (positive and isotype controls at 1 μg/ml). After a 20 min incubation time at 4° C., cells were centrifuged 2 min at 2000 rpm and resuspended in either cold (4° C.) or warm (37° C.) complete culture medium. Cells were then incubated for 2 hours either at 37° C. or at 4° C. Then cells were washed three times with FACS buffer. An Alexa 488-labeled goat anti-mouse IgG antibody was incubated for 20 minutes and cells were washed three times before FACS analysis on propidium iodide negative cell population.

[11] = target: T5, human insulin receptor (on cells); assay: FACS on IM-9 cells (express hIR), 4°C
Experimental: as §2
For this FACS analysis, the protocol was the same as the one described previously and murine anti-IGF-1R antibodies were used in order to prevent the cross reactivity of the secondary anti-human Ab (IM9 cells express human Ig on their cell surface).

[12] = target: T2, human IGF-1R (native, on cells); assay: cell-based or functional assay; remark: listed apart in the source
[13] = target: T2, human IGF-1R (native, on cells); assay: FACS on MCF-7 cells, 4°C; inset table, axis log [M]
Experimental: The binding properties of a series of anti-IGF-1R antibodies were evaluated by FACS analyses on the human MCF-7 breast adenocarcinoma cell line (ATCC#HTB-22) using increasing antibody concentrations. For that purpose, cells (1×10⁶ cells/ml) were incubated with anti-IGF-1R antibodies for 20 min. at 4° C. in FACS buffer (PBS, 0.1% BSA, 0.01% NaN₃). They were then washed 3 times and incubated with the appropriate secondary antibody coupled with Alexa 488 for 20 additional minutes at 4° C. in the dark before being washed 3 times in FACS buffer. The binding of anti-IGF-1R antibodies was immediately performed on viable cells which were identified using propidium iodide (that stains dead cells). The maximum of signal intensity obtained with each antibody was designed as Bₘₐₓ and expressed in mean of fluorescence intensity (MFI). The EC₅₀ of binding expressed in molarity (M) was calculated using a nonlinear regression analysis (GraphPad Prims 4.0).

[14] = target: T4, monkey IGF-1R (on COS-7 cells); assay: FACS on COS-7 cells, 4°C; inset table, axis log [M]
Experimental: In order to evaluate the binding of anti-IGF-1R antibodies on monkey IGF-1R, the binding of both murine and chimeric anti-hIGF-1R antibodies was evaluated by FACS analyses on COS-7 cell line using increasing antibody concentrations. Cells (1×10⁶ cells/ml) were incubated with anti-IGF-1R antibodies for 20 minutes at 4° C. in FACS buffer (PBS, 0.1% BSA, 0.01% NaN₃). Then, cells were washed 3 times and incubated with the appropriate secondary antibody coupled with Alexa 488 before being incubated for 20 additional minutes at 4° C. in the dark and finally washed 3 times in FACS buffer. The binding of anti-IGF-1R antibodies was immediately evaluated on viable cells identified using propidium iodide (that stains dead cells). The binding EC₅₀ expressed in molarity (M) was calculated using a nonlinear regression analysis (GraphPad Prims 4.0).

T1 sequence (Q60751 31-936): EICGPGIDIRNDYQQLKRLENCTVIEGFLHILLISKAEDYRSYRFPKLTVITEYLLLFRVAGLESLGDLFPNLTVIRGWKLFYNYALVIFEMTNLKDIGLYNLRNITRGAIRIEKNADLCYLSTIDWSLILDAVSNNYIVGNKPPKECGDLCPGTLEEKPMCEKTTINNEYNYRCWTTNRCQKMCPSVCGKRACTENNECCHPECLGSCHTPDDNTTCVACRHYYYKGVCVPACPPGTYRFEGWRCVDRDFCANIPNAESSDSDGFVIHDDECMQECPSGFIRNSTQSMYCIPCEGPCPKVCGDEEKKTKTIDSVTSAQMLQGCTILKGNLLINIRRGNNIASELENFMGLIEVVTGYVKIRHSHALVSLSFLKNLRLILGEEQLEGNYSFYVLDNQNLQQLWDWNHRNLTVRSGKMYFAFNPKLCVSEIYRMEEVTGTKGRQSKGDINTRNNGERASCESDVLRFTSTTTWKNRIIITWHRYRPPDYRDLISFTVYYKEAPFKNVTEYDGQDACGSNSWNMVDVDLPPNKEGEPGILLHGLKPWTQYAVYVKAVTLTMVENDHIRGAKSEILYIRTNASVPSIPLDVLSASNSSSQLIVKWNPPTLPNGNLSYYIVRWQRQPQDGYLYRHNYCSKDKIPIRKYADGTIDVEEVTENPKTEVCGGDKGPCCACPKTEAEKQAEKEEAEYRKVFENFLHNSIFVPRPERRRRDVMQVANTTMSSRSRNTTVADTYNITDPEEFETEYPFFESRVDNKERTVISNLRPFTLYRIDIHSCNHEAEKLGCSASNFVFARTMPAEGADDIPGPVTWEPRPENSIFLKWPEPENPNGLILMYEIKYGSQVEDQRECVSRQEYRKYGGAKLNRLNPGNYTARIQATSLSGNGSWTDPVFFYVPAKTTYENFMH

| binding result [1] | MFI [2] | HalfLife (decay of cell-surface bound antibody on MCF-7 at 37°C) [3] | hIGF-1R phosphorylation in response to IGF-1 (western blot, MCF-7) [4] | binding result [5] | D.O 450 nm [6] | % internalisation [7] | ΔMFI [7] | MFI [8] | MFI 4°C [10] | % remaining rh IGF1R [12] | MFI 37°C (internalisation assay, MCF7) [12] | Δ (MFI 4°C - MFI 37°C) [12] | EC50 [13] | EC50 [14] | Binder | binding result [9] | binding result [11] |
| --- | --- | --- | --- | --- | --- | --- | --- | --- | --- | --- | --- | --- | --- | --- | --- | --- | --- |
| no binding | 2060 MFI | 12.8 min (unit from p-0380; none on the sheet) | > 80% | no binding | 0.127 D.O 450 nm | 74% | 84 MFI | 122 MFI | 386 MFI | 30% | 115 MFI | 271 MFI |  |  | m213B10 (antibody, V domains shown, murine mAb, hybridoma CNCM I-4774, group G2) VH: QVQLQQSGSELVKPGASVKMSCKASGYTFTSYYIHWVKQRPGQGLEWIGWIWPGDGSTKYNERFKGKTTLTADKSSSTAYMFLSSLTSEDSAVYFCASPMITPNYAMDYWGQGASVTVSS VL: DIQMTQTTSSLSASLGDRVTISCRASQDISKYLNWYQQQPDGTIKLLIYYTSRLHSGVPSRFSGRGSGTDYSLTITNLEQEDIATYFCQQGSALPYTFGGGTKLEIK |  | no binding (tested: log [M] about -6.5 (about 3e-7 M)) |
| no binding | 2140 MFI | 16.8 min (unit from p-0380; none on the sheet) | > 80% | no binding | 0.102 D.O 450 nm | 71% | 76 MFI | 132 MFI | 386 MFI | 29% | 111 MFI | 275 MFI |  |  | m214F8 (antibody, V domains shown, murine mAb, hybridoma CNCM I-4775, group G2) VH: QVQLQQSGSELVKPGASVKLSCKASGYTFTSYYIHWVKQRPGQGLEWIGWIWPGDGSTKYNERFKGKTTLTADKSSSTAYMFLSSLTSEDSAVYFCASPMITPNYAMDYWGQGASVTVSS VL: DIQMTQTTSSLSASLGDRVTFSCRASQDISKYLNWYQQQPDGTIKLLIYYTSRLHSGVPSRFSGRGSGTDYSLTITNLEQEDIATYFCQQGSALPYTFGGGTKLEIK |  | no binding (tested: log [M] about -6.5 (about 3e-7 M)) |

Second part, the binder before the results:

| Binder | binding result [1] | MFI [2] | HalfLife (decay of cell-surface bound antibody on MCF-7 at 37°C) [3] | hIGF-1R phosphorylation in response to IGF-1 (western blot, MCF-7) [4] | binding result [5] | D.O 450 nm [6] | % internalisation [7] | ΔMFI [7] | MFI [8] | MFI 4°C [10] | % remaining rh IGF1R [12] | MFI 37°C (internalisation assay, MCF7) [12] | Δ (MFI 4°C - MFI 37°C) [12] | EC50 [13] | EC50 [14] | binding result [9] | binding result [11] |
| --- | --- | --- | --- | --- | --- | --- | --- | --- | --- | --- | --- | --- | --- | --- | --- | --- | --- |
| m212A11 (antibody, V domains shown, murine mAb, hybridoma CNCM I-4773, group G2) VH: QVQLQQSGPELVKPGASVKMSCKASGYTFTSYYIHWVKQRPGQGLEWIGWIWPGDGSTKYNEKFKGKTTLTADKSSSTAYMFLSSLTSEDSAVYFCASPMITPNYAMDYWGQGASVTVSS VL: DIQMTQTTSSLSASLGDRVTISCRASQDINKYLNWYQQQPDGTVKLLIYYTSRLHSGVPSRFSGRGSGTDYSLTISNLEQEDIATYFCQQGSTLPYTFGGGTKLEIK | no binding | 2190 MFI | 14.3 min (unit from p-0380; none on the sheet) | > 80% | no binding | 0.102 D.O 450 nm | 73% | 83 MFI | 125 MFI | 390 MFI |  |  |  |  |  | no binding (tested: log [M] about -6.5 (about 3e-7 M)) |  |
| m208F2 (antibody, V domains shown, murine mAb, hybridoma CNCM I-4757, group G2; also called murine 208F2) VH: QVQLQQSGPELVKPGASVKMSCKASGYTFTSYYIYWVKQRPGQGLEWLGWIWPGDGSTKYNEKFKDKTTLTADKSSNTAYMFLSSLTSEDSAVYFCASPMITPNYAMDYWGQGASVTVSS VL: DIQMTQTTSSLSASLGDRVTISCRASQDISKYLNWYQQQPDGTIKLLIYYTSRLHSGVPSRFSGRGSGTDYSLTISNVEQEDIATYFCQQGSTLPYTFGGGTKLEIK | no binding | 2200 MFI | 11.1 min (unit from p-0380; none on the sheet) | > 80% | no binding | 0.099 D.O 450 nm | 74% | 53 MFI |  | 355 MFI | 27% | 94 MFI | 261 MFI | 0.526 nM | 0.758 nM | no binding (tested: log [M] about -6.5 (about 3e-7 M)) |  |
| m219D6 (antibody, V domains shown, murine mAb, hybridoma CNCM I-4736, group G2) VH: QVQLQQSGPELVKPGDSVKMSCKASGYSFTSYFIHWVKQRPGQGLEWIGWIWPGDGSTKYNEKFKGKTTLTTDKSSSTAYMFLNSLTSEDSAVYFCASPMITPNYAMDYWGQGASVTVSS VL: DIQMTQTTSSLSASLGDRVTISCRASQDISKYLNWYQQQPDGTVKLLIYYTSRLHSGVPSRFSGRGSGTDYSLTISNLEQEDIATYFCQQGSTLPYTFGGGTKLEIK | no binding | 2110 MFI | 17.9 min (unit from p-0380; none on the sheet) | > 80% | no binding | 0.112 D.O 450 nm | 71% | 80 MFI | 114 MFI | 349 MFI |  |  |  |  |  | no binding (tested: log [M] about -6.5 (about 3e-7 M)) |  |
